{"source": "patent US20260097113A1", "about": "(Pfizer, published 2026)", "binders": {"B1": {"name": "AM14 (trimeric prefusion specific antibody of the AM14 ELISA) (antibody, V domains shown)", "VH": "EVQLVESGGGVVQPGRSLRLSCAASGFSFSHYAMHWVRQAPGKGLEWVAVISYDGENTYYADSVKGRFSISRDNSKNTVSLQMNSLRPEDTALYYCARDRIVDDYYYYGMDVWGQGATVTVSS", "VL": "DIQMTQSPSSLSASVGDRVTITCQASQDIKKYLNWYHQKPGKVPELLMHDASNLETGVPSRFSGRGSGTDFTLTISSLQPEDIGTYYCQQYDNLPPLTFGGGTKVEIKR", "notes": "Antibody as used in the AM14 ELISA, detected with an HRP-labeled secondary antibody"}}, "molecular_target": "T1, RSV F protein of subtype A comprising a polypeptide of SEQ ID NO: 1 and a polypeptide of SEQ ID NO: 2 (RSV subtype A, UniProt P11209 137-513; P03420 26-109)", "T1 construct": "Stabilized prefusion F trimer made of three F2-F1 heterodimers; Produced recombinantly in CHO cells; also called RSV A; RSVA", "T1 chain 1": "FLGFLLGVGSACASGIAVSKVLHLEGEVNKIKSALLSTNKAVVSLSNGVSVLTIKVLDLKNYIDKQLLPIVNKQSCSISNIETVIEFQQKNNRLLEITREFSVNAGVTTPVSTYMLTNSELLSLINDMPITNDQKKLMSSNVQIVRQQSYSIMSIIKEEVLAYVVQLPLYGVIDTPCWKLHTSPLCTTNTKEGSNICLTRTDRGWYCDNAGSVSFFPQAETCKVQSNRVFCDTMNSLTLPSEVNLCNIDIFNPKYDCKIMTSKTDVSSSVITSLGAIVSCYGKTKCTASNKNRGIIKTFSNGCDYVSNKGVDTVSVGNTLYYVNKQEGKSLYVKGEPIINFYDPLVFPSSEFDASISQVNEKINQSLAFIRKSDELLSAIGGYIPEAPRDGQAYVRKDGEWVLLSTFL", "T1 chain 2": "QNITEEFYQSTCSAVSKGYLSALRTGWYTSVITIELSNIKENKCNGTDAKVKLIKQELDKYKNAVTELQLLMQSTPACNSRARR", "assay": "AM14 ELISA; F10 (pH 7, 50 mM NaCl, 4.5% sucrose); 1 wk 5°C", "data": [{"binder": "B1", "values": [{"measurement": "AM14 prefusion content (%), relative to standard", "result": 93, "unit": "%"}]}]}
